Source: article PMC10230788

Molecular target: glucagon receptor (rat ventricular myocardium) (rat (endogenous in Sprague-Dawley rat right ventricle)) (UniProt P30082)
Sequence of UniProt P30082 (P30082 27-485): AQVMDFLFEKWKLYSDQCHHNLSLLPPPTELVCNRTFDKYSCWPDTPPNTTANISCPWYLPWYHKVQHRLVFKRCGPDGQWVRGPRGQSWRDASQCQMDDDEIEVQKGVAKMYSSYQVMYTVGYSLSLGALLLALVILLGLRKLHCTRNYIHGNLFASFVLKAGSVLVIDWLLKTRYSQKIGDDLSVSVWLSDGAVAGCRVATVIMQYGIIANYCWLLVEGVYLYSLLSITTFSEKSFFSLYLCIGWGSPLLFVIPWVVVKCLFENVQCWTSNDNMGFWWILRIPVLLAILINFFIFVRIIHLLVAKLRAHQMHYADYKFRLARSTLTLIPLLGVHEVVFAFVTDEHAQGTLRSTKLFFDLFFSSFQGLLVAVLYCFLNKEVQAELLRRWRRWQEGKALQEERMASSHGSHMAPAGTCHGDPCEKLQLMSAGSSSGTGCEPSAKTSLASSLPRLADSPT

Sequence of glucagon (P01275 53-81): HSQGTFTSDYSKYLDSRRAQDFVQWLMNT

Substance: glucagon (from UniProt P01275 53-81) (ligand)
- Emax of the inotropic response (percent increase in contractility over baseline) of rat right ventricle strips to glucagon (1–1000 nM), in the absence of IBMX: 40%
- Emax of the inotropic response (percent increase in contractility over baseline) of rat right ventricle strips to glucagon (1–1000 nM), in the presence of 30 µM IBMX: 75%
- –log EC50 of the positive inotropic response (contractility) of electrically driven rat right ventricle strips to glucagon (1–1000 nM), glucagon alone: 7.1 –log EC50
